The source of these data is paper PMC3844103 (Biochemistry, 2013).

Non-standard residues stand in square brackets, D forms with d. pY = N[C@@H](Cc1ccc(OP(=O)(O)O)cc1)C(=O)O

The target of this experiment is T1, C-terminal SH2 (cSH2) domain of PLC-γ1 (rat, UniProt P10686 664-766).
T1 sequence (looked up): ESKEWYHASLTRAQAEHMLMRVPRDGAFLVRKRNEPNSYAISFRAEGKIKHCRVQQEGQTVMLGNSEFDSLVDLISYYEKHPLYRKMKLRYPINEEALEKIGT
Put plainly: crystal structure.

B1: pTyr783 peptide of PLC-γ1 (peptide)
peptide: Ac-DYGALYEGRNPGF[pY]VEAN-NH2
SMILES: CC(=O)N[C@@H](CC(=O)O)C(=O)N[C@@H](Cc1ccc(O)cc1)C(=O)NCC(=O)N[C@@H](C)C(=O)N[C@@H](CC(C)C)C(=O)N[C@@H](Cc1ccc(O)cc1)C(=O)N[C@@H](CCC(=O)O)C(=O)NCC(=O)N[C@@H](CCCNC(=N)N)C(=O)N[C@@H](CC(N)=O)C(=O)N1CCC[C@H]1C(=O)NCC(=O)N[C@@H](Cc1ccccc1)C(=O)N[C@@H](Cc1ccc(OP(=O)(O)O)cc1)C(=O)N[C@H](C(=O)N[C@@H](CCC(=O)O)C(=O)N[C@@H](C)C(=O)N[C@@H](CC(N)=O)C(N)=O)C(C)C
Consider B1, for which the binding result is given as “binds”.
